These are literature values, as cited in PMC5152572.

pKd: −log10 of the molar value. Where two headings read alike, the source gives them in different places.

In series [1] the target is IL-1 receptor (Homo sapiens) (UniProt P14778).
Series [2] shares this target. The source holds these as a separate data set.

Chain of UniProt P14778 (P14778 18-569): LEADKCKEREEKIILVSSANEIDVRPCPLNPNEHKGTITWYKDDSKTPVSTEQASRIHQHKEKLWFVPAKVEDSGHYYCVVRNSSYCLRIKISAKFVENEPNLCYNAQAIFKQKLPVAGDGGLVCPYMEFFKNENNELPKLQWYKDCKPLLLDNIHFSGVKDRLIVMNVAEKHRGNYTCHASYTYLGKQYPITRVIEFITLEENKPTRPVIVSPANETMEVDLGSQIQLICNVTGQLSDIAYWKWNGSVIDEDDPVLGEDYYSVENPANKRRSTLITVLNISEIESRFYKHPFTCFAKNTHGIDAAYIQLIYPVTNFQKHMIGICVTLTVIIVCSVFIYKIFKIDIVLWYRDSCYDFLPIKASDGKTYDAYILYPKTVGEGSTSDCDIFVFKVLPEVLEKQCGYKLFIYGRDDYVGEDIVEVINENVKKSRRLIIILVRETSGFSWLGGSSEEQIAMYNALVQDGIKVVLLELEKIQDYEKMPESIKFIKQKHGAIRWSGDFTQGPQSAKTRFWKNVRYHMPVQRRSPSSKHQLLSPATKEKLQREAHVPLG

On to “mature IL-1α mature (from UniProt P01583)”, for which the negative logarithm of the Kd (pKd) in series [1] is 8.35.

On to pro-IL-1α (from UniProt P01583), for which the pKd in series [2] was 8.40.

The pKd is the negative decadic logarithm of the Kd, by convention in mol/L.
